US9249224B2 (RINAT NEUROSCIENCE CORP., priority 2011, dated 2016)

Tested on: cyno GHR
Test: STAT5 phosphorylation in vitro assay, cyno GHR-transfected HEK293 cells
Assay type: cell-based, cynomolgus monkey
Details: for fluorescent signal ave (phospho-STAT5): Table 8, cyno GHR-transfected cells
Description: This Example illustrates the effect of GHR antibodies in an in vitro STAT5 phosphorylation assay. In this Example, the ability of GHR antibodies to block GHR downstream signaling was tested in vitro using human GHR overexpressing cells and cyno GHR overexpressing cells.
GHR antagonist antibody Ab13 was tested for its ability to block STAT5 in an in vitro assay. HEK293 cells were transiently transfected with either DNA encoding full-length human GHR (SEQ ID NO: 140) or DNA encoding full-length cyno GHR (SEQ ID NO: 141). Cells were cultured in freestyle media for approximately 60 hours before testing. Cells were washed with DPBS (Dulbecco's Phosphate-Buffered Saline) and resuspended in Freestyle media, then counted using a hemocytometer. 1×10^6 cells were seeded per well in 6-well plates in 2 mls of Freestyle media. Cells were incubated for 2 hours at 37° C., then treated with 5, 50, or 500 nM Ab13 antibody in media. Cells were incubated at 37° C. with gentle mixing for 5 min with antibodies. 4.5 nM GH (Genotropin) was then added to all but control wells. Cells were incubated with GH at 37° C. with gentle mixing for 10 minutes.
Following incubation with GH, 2 ml of ice cold DPBS with 1× protease inhibitor cocktail (Roche) and 1 mM sodium orthovanadate (BioLabs) were added to each well and the plates were placed on ice. Cells were transferred to 5 ml tubes and spun down to create a cell pellet and the wash buffer was aspirated, leaving the cell pellet.
Reagents from Millipore™ MILLIPLEX® MAP Cell Signaling Buffer and Detection Kit (cat. #48-602) were used to lyse and treat the cell pellets. Millipore lysis buffer with 1× protease inhibitor cocktail and 1 mM sodium orthovanadate was added to each pellet at a volume of 200 ul/pellet. Cells were vortexed and incubated for 15 minutes at room temp with occasional vortexing. Millipore Assay buffer 2 with 1× protease inhibitor cocktail and 1 mM sodium orthovanadate was then added to the lysates at 300 ul/well.
Millipore™ MILLIPLEX® MAP Phospho STAT5N8 (Tyr694/699) MAPmate™ beads (Cat. #46-641) were resuspended in Assay Buffer 2 (from Millipore™ kit cat. #48-602) and loaded on a 96-well filter plate (provided in kit) at 25 ul/well, 25 ul/well of sample lysate was added to the wells and the beads and samples were incubated overnight at 4′C with shaking in the dark.
The liquid was then aspirated using a vacuum manifold and the remaining beads were washed using Millipore™ kit wash buffer. 25 ul Millipore™ kit detection antibody was added and incubated for 1 hour at room temperature with shaking in the dark. The detection antibody was vacuumed through and 25 ul kit streptavidin—Phycoerythrin was added and incubated in the dark for 15 min with shaking. 25 ul kit amplification buffer was then added and incubated for 15 min with shaking in the dark. The liquid was aspirated using a vacuum manifold, and the beads were resuspended in 150 ul kit assay buffer 2 and mixed on a shaker for 5 minutes before reading the plate.
The plate was read using a Luminex™ 200 instrument and fluorescent signal emitted from the samples was measured, The results of the STAT5 assay are shown in Tables 5 and 6. “Ave” indicates the average fluorescent signal, and “SEM” indicates the standard error of the mean.
Antibodies SS3 and SS1 (hIgG2Δa) were tested using a STAT5 phosphorylation assay. For the STAT5 assay, full-length human GHR overexpressing HEK293 cells or full-length cyno GHR-overexpressing HEK293 cells were cultured, counted by automated cell counter, and seeded in warm freestyle media in 12-well plates (5×10^5 cells/well in 1 ml media). Cells were allowed to settle for 3 hours at 37° C. then treated with 2.5, 5, 50, or 500 nM of SS1 or SS3 in media. […] Cells were incubated with GH at 37° C. with gentle mixing for 10 minutes.
Reagents from Millipore™ MILLIPLEX® MAP Cell Signaling Buffer and Detection Kit (cat, #48-602) were used to lyse and treat the cell pellets. […]

Chain of cyno GHR (as listed by the source): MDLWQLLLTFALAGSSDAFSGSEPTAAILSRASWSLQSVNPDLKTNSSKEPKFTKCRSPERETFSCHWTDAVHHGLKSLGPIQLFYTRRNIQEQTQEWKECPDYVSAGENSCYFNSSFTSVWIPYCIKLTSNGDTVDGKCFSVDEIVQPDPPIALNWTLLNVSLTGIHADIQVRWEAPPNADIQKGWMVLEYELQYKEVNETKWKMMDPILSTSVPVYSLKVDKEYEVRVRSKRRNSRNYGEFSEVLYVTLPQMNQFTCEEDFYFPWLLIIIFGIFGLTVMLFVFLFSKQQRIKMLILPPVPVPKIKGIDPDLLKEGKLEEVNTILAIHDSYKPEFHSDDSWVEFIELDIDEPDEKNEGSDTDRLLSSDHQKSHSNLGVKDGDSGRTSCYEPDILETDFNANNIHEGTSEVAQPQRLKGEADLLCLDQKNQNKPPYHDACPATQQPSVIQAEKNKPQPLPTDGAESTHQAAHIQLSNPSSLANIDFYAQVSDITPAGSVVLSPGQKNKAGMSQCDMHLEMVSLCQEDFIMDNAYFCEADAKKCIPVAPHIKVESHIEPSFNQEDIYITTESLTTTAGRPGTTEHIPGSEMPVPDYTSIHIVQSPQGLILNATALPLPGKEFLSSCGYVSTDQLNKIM

B1: SS1: humanized GHR antagonist antibody; VL SEQ ID NO: 7, VH SEQ ID NO: 8; hIgG2Δa heavy chain SEQ ID NO: 134, light chain SEQ ID NO: 135 (antibody)
heavy: EVQLVESGGGLVKPGGSLRLSCAASGFTFSDAWMDWVRQAPGKGLEWVAEIRSKANYHATYYAESVKGRFTISRDDSKNTLYLQMNSLKTEDTAVYYCTLIRDYWGQGTLVTVSSASTKGPSVFPLAPCSRSTSESTAALGCLVKDYFPEPVTVSWNSGALTSGVHTFPAVLQSSGLYSLSSVVTVPSSNFGTQTYTCNVDHKPSNTKVDKTVERKCCVECPPCPAPPVAGPSVFLFPPKPKDTLMISRTPEVTCVVVDVSHEDPEVQFNWYVDGVEVHNAKTKPREEQFNSTFRVVSVLTVVHQDWLNGKEYKCKVSNKGLPSSIEKTISKTKGQPREPQVYTLPPSREEMTKNQVSLTCLVKGFYPSDIAVEWESNGQPENNYKTTPPMLDSDGSFFLYSKLTVDKSRWQQGNVFSCSVMHEALHNHYTQKSLSLSPGK
light: EIVLTQSPGTLSLSPGERATLSCTATSSVSSSYLNWYQQKPGQAPRLLIYSTSNLASGIPDRFSGSGSGTDFTLTISRLEPEDFAVYYCHQYHRSTPTFGGGTKVEIKRTVAAPSVFIFPPSDEQLKSGTASVVCLLNNFYPREAKVQWKVDNALQSGNSQESVTEQDSKDSTYSLSSTLTLSKADYEKHKVYACEVTHQGLSSPVTKSFNRGEC
modifications: Humanized and/or affinity matured antibody sequence
fluorescent signal ave (phospho-STAT5) (2.5 nM antibody + 4.5 nM GH): 496 | fluorescent signal ave (phospho-STAT5) (5 nM antibody + 4.5 nM GH): 223 | fluorescent signal ave (phospho-STAT5) (50 nM antibody + 4.5 nM GH): 17 | fluorescent signal ave (phospho-STAT5) (500 nM antibody + 4.5 nM GH): 12 | effect on GH-stimulated STAT5 signaling (cells expressing cyno GHR, 4.5 nM GH): blocked STAT5 signaling in a dose-dependent manner
